The record followed here is publication PMC3953254.

The assay deals with SadB (cytosolic construct without signal peptide, Cys-22 replaced by serine) (S. typhimurium) (UniProt Q8ZL65). Briefly: crystal structure; SadB at 8 mg/ml in 20 mM MOPS/HCl, pH 7, 50 mM NaCl; sitting drop at 20 °C; reservoir 0.2 M lithium sulfate, 0.1 M Tris, pH 8.5, 20% (w/v) PEG 4000; 2.45 Å.

One may read the stoichiometry N as a count of units in the complex or per binding partner. Substance “SadB (cytosolic construct without signal peptide, Cys-22 replaced by serine) (from UniProt Q8ZL65 22-227) (domain or fragment)” gave a stoichiometry N of 3.
